Data from patent US20240368655.

Molecular target: Concanavalin A (UniProt P02866)
Test: SELEX
Conditions: FANA copy of the listed DNA template; every U is C8-alkyne-FANA U conjugated to 2-azidoethyl-alpha-D-mannose; displayed on its encoding dsDNA; round 3 recovery by qPCR; round 1 about 0.14%; PBS, 2.5 mM MgCl2, 1 mM CaCl2, 0.1 mM MnCl2, 0.01% Tween 20, room temperature

“CCTATAGCCGTTTGCACAAGNNNNNNNNNNNNNNNNNNNNNNNNNNNNNNNNNNNNNNNNCCCGTACCCGTTAAGATTACTTCGGACTGGGATC [Man-cmFANA N40 library, round 3]” showed a binding of 47 % recovery.
